From paper PMC9455977, “Deciphering the Regulatory Circuits of RA3 Replication Module - Mechanisms of the Copy Number Control”

What was measured:
Settings in all cases: protein: recombinant; tags: N-terminal His6; chain copies: 2; label: none (ethidium bromide stain); blunt
RepA (His6-RepA) [1] = target: T1, RepA (His6-RepA) (plasmid RA3 (IncU, isolated from …, UniProt Q209K0 1-98)); assay: EMSA; no binding up to 4 uM RepA
T1 sequence: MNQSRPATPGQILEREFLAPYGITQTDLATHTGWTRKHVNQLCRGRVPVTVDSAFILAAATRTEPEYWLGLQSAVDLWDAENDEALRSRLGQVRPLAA

RepA (His6-RepA) [2] = target: T1, RepA (His6-RepA); assay: EMSA; bound at 0.1 uM RepA; 25 mM Tris-HCl pH 8.0, 5 mM MgCl2, 40 mM NaCl, 0.5 mg/mL BSA, 30 min at 37 C, 20 uL; 30 ng PCR fragment (0.8% agarose) or 150 ng ds oligo (10% native PAGE), 0.5x TBE
RepA (His6-RepA) [3] = target: T1, RepA (His6-RepA); assay: EMSA; no binding up to 4 uM RepA; 25 mM Tris-HCl pH 8.0, 5 mM MgCl2, 40 mM NaCl, 0.5 mg/mL BSA, 30 min at 37 C, 20 uL; 30 ng PCR fragment (0.8% agarose) or 150 ng ds oligo (10% native PAGE), 0.5x TBE

B1: IR2* (dsDNA)
DNA 1: AAACAGTCGACTCTGATGAGGGC
DNA 2: GCCCTCATCAGAGTCGACTGTTT
binding result (RepA (His6-RepA) [1]): no binding

B2: IR1 (dsDNA)
DNA 1: TTGAAGTTTACCAACTAGGTTACACTTCAA
DNA 2: TTGAAGTGTAACCTAGTTGGTAAACTTCAA
binding result (RepA (His6-RepA) [2]): binds

B3: IR2 (dsDNA)
DNA 1: AAACACATCATTCTGATGAGGGC
DNA 2: GCCCTCATCAGAATGATGTGTTT
binding result (RepA (His6-RepA) [3]): no binding
